Results taken from article PMC9121654 (Biochemical and Biophysical Research Communications, 2022).

Molecular target: the molecule itself
Assay: SEC

B1: GYINVG-ZYG11B485-728 fusion protein (other)
chain: GYINVGAQLGTELFIVRQLLQIVKQKTNQNSVDTTLKFTLSALWNLTDESPTTCRHFIENQGLELFMRVLESFPTESSIQQKVLGLLNNIAEVQELHSELMWKDFIDHISSLLHSVEVEVSYFAAGIIAHLISRGEQAWTLSRSQRNSLLDDLHSAILKWPTPECEMVAYRSFNPFFPLLGCFTTPGVQLWAVWAMQHVCSKNPSRYCSMLIEEGGLQHLYNIKDHEHTDPHVQQIAVAILDSLEKHIVR
  stoichiometry N: 2
